Results reported in patent US20080138349A1.

Tests used:
[1] = biological target: FcγRIIIA 158V (CD16A V158), soluble monomer (human) (UniProt P08637); assay: binding to human FcRs; method not given
[2] = biological target: FcγRIIA 131H (CD32A H131), soluble dimeric Fc fusion (human) (UniProt P12318); assay: binding to human FcRs; method not given
[3] = biological target: FcγRIIB (CD32B), soluble dimeric Fc fusion (human) (UniProt P31994); assay: binding to human FcRs; method not given
[4] = biological target: FcγRIIIA 158F (CD16A F158), soluble monomer (human) (UniProt P08637); assay: binding to human FcRs; method not given
Sequence of FcγRIIIA 158F (CD16A F158), soluble monomer (human) (P08637 17-208): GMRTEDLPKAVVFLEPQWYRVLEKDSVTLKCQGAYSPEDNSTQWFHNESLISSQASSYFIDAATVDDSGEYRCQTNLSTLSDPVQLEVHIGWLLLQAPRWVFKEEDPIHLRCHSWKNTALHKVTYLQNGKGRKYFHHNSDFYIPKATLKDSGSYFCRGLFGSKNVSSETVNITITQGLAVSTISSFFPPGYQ

[5] = biological target: FcγRIIA 131H (CD32A H131), soluble dimeric Fc fusion (human) (UniProt P12318); assay: value on CD32A 131H over value on CD32B
[6] = biological target: FcγRIIIA 158F (CD16A F158), soluble monomer (human) (UniProt P08637); assay: value on CD16A 158F over value on CD32B
[7] = biological target: FcγRIIIA 158F (CD16A F158), soluble monomer (human) (UniProt P08637); assay: method not given
[8] = biological target: FcγRIIA 131R (CD32A R131), soluble dimeric Fc fusion (human) (UniProt P12318); assay: method not given
Sequence of FcγRIIA 131R (CD32A R131), soluble dimeric Fc fusion (human) (P12318 34-217 H167R): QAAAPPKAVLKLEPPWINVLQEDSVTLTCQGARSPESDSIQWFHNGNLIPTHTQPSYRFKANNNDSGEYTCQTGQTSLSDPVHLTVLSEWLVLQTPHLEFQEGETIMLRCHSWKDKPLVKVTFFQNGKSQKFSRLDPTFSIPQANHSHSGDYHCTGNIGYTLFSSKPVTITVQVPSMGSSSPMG

[9] = biological target: FcγRIIIA 158V (CD16A V158), soluble monomer (human) (UniProt P08637); assay: method not given
[10] = biological target: FcγRIIA 131H (CD32A H131), soluble dimeric Fc fusion (human) (UniProt P12318); assay: method not given
[11] = biological target: FcγRIIB (CD32B), soluble dimeric Fc fusion (human) (UniProt P31994); assay: method not given
[12] = biological target: FcγRIIIA 158V (CD16A V158), soluble monomer (human) (UniProt P08637); assay: value on CD16A 158V over value on CD32B
[13] = biological target: FcγRIIIA 158F (CD16A F158), soluble monomer (human) (UniProt P08637); assay: Biacore SPR
[14] = biological target: FcγRIIIA 158V (CD16A V158), soluble monomer (human) (UniProt P08637); assay: Biacore SPR
[15] = biological target: FcγRIIB (CD32B), soluble dimeric Fc fusion (human) (UniProt P31994); assay: Biacore SPR
[16] = biological target: FcγRIIIA 158F (CD16A F158), soluble monomer (human) (UniProt P08637); assay: Biacore SPR; value on CD16A over value on CD32B
[17] = biological target: FcγRIIIA 158V (CD16A V158), soluble monomer (human) (UniProt P08637); assay: Biacore SPR; value on CD16A over value on CD32B
[18] = biological target: FcγRIIB-Fc fusion protein, soluble dimeric: extracellular domain of FcγRIIB fused to the hinge-CH2-CH3 domain of human IgG2 (human) (UniProt P31994); assay: BIAcore
Sequence of FcγRIIB-Fc fusion protein, soluble dimeric: extracellular domain of FcγRIIB fused to the hinge-CH2-CH3 domain of human IgG2 (human) (P31994 43-217 limits assumed): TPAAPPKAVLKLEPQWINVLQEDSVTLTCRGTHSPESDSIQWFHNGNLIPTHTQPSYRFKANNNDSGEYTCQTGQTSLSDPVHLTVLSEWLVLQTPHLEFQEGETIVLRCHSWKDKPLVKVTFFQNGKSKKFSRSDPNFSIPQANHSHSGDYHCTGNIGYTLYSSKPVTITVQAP

[19] = biological target: soluble monomeric FcγRIIIA, the extracellular region of FcγRIIIA joined to the linker-AVITAG sequence (UniProt P08637); assay: BIAcore
Sequence of soluble monomeric FcγRIIIA, the extracellular region of FcγRIIIA joined to the linker-AVITAG sequence (P08637 17-208 limits assumed): as the sequence (P08637 17-208) above

[20] = biological target: FcγRIIB-Fc fusion protein, soluble dimeric: extracellular domain of FcγRIIB fused to the hinge-CH2-CH3 domain of human IgG2 (human) (UniProt P31994); assay: ELISA
[21] = biological target: FcγRIIIA (UniProt P08637); assay: ELISA
Sequence of FcγRIIIA (P08637 17-208 limits assumed): as the sequence (P08637 17-208) above

[22] = biological target: FcγRIIB-Fc fusion protein, soluble dimeric: extracellular domain of FcγRIIB fused to the hinge-CH2-CH3 domain of human IgG2 (human) (UniProt P31994); assay: BIAcore, antibody captured on BSA-FITC
[23] = biological target: soluble monomeric FcγRIIIA, the extracellular region of FcγRIIIA joined to the linker-AVITAG sequence (UniProt P08637); assay: BIAcore, antibody captured on BSA-FITC

Sequence of FcγRIIA 131H (CD32A H131), soluble dimeric Fc fusion (human) (P12318 34-217): as the sequence (P12318 34-217 H167R) above, with R134H counted along it
Sequence of FcγRIIB (CD32B), soluble dimeric Fc fusion (human) (P31994 43-217): as the sequence (P31994 43-217 limits assumed) above
Sequence of FcγRIIIA 158V (CD16A V158), soluble monomer (human) (P08637 17-208 F176V): as the sequence (P08637 17-208) above, with F160V counted along it

Immunoglobulin with variant Fc region R292P V305I F243L P396L (antibody)
fold change relative to wild-type affinity [1]: -3 fold | fold change relative to wild-type affinity [2]: -0.3 fold | fold change relative to wild-type affinity [3]: -1.6 fold

Control immunoglobulin with variant Fc region S239D I332E A330L (XmAb) (antibody)
fold change relative to wild-type affinity [4]: 8.1 fold | fold change relative to wild-type affinity [1]: 13.9 fold | fold change relative to wild-type affinity [2]: 0 fold | fold change relative to wild-type affinity [3]: 0.74 fold

Immunoglobulin with variant Fc region R292P (antibody)
fold change relative to wild-type affinity [4]: 0.6 fold | fold change relative to wild-type affinity [2]: -0.5 fold | fold change relative to wild-type affinity [3]: -2.7 fold

Immunoglobulin with variant Fc region L234F, F243L, R292P, Y300L (antibody)
Ratio of Affinities 32A-131H:32B [5]: 1.5 | Ratio of Affinities 16A-158F:32B [6]: 8 | binding relative to wt (wt = 1) [7]: 1.6 | binding relative to wt (wt = 1) [8]: 0.2 | binding relative to wt (wt = 1) [9]: 1.7 | binding relative to wt (wt = 1) [10]: 0.3 | binding relative to wt (wt = 1) [11]: 0.2 | Ratio of Affinities 16A-158V:32B [12]: 8.5

Immunoglobulin with variant Fc region P396L (antibody)
Koff WT/Koff mutant [13]: 1.73 | Koff WT/Koff mutant [14]: 1.27 | Koff WT/Koff mutant [15]: 2.58 | fold change relative to wild-type affinity [4]: 0.7 fold | fold change relative to wild-type affinity [1]: 0.3 fold | fold change relative to wild-type affinity [2]: 0.6 fold | fold change relative to wild-type affinity [3]: 1.6 fold | Ratio of Affinities CD16A F158/CD32B [16]: 0.67 | Ratio of Affinities CD16A V158/CD32B [17]: 0.49

Immunoglobulin with variant Fc region L235Q, F243L, R292P, Y300L (antibody)
binding relative to wt (wt = 1) [9]: 1.8 | binding relative to wt (wt = 1) [10]: 0.2

Immunoglobulin with variant Fc region K392T P396L D270E F243L (antibody)
Koff WT/Koff mutant [13]: 2.44 | Koff WT/Koff mutant [14]: 3.16 | Koff WT/Koff mutant [15]: 0.44 | Ratio of Affinities CD16A F158/CD32B [16]: 5.55 | Ratio of Affinities CD16A V158/CD32B [17]: 7.18

Control immunoglobulin with variant Fc region E333A K334A S298A (AAA) (antibody)
fold change relative to wild-type affinity [4]: 0.1 fold | fold change relative to wild-type affinity [1]: 0.6 fold | fold change relative to wild-type affinity [2]: -3.3 fold | fold change relative to wild-type affinity [3]: -2.5 fold

Immunoglobulin with variant Fc region F243L R292P P396L (antibody)
fold change relative to wild-type affinity [4]: 2.4 fold | fold change relative to wild-type affinity [1]: 5.3 fold | fold change relative to wild-type affinity [2]: 0.4 fold | fold change relative to wild-type affinity [3]: -1.6 fold

Immunoglobulin with variant Fc region F243L R292P Y300L (antibody)
Koff WT/Koff mutant [13]: 2.3 | Koff WT/Koff mutant [14]: 6.69 | Koff WT/Koff mutant [15]: 0.32 | fold change relative to wild-type affinity [4]: 3.6 fold | fold change relative to wild-type affinity [1]: 6.4 fold | fold change relative to wild-type affinity [2]: 0 fold | fold change relative to wild-type affinity [3]: -0.7 fold | Ratio of Affinities CD16A F158/CD32B [16]: 7.19 | Ratio of Affinities CD16A V158/CD32B [17]: 20.9

Immunoglobulin with variant Fc region Y300L (antibody)
Koff WT/Koff mutant [14]: 1.01 | Koff WT/Koff mutant [15]: 1.18 | fold change relative to wild-type affinity [4]: 0.2 fold | fold change relative to wild-type affinity [1]: 0 fold | fold change relative to wild-type affinity [2]: 1.9 fold | fold change relative to wild-type affinity [3]: 0.2 fold | Ratio of Affinities CD16A F158/CD32B [16]: 0.99

ch4-4-20 antibody, wild-type Fc (chimeric anti-fluorescein, IgG1)
Kd [18]: 94 nM | Kd [19]: 198 nM | ELISA, OD [20]: 0.4 OD | ELISA IIIA binding vs wt [21]: 1 | ELISA, OD [21]: 0.5 OD | Kd [22]: 61.4 nM | Kd [23]: 319 nM

Immunoglobulin with variant Fc region R255L P396L D270E F243L (antibody)
Koff WT/Koff mutant [13]: 1.64 | Koff WT/Koff mutant [14]: 1.75 | Koff WT/Koff mutant [15]: 0.38 | Ratio of Affinities CD16A F158/CD32B [16]: 4.32 | Ratio of Affinities CD16A V158/CD32B [17]: 4.61

Immunoglobulin with variant Fc region Q419H P396L D270E F243L (antibody)
Koff WT/Koff mutant [13]: 1.15 | Koff WT/Koff mutant [14]: 1.46 | Koff WT/Koff mutant [15]: 0.26 | Ratio of Affinities CD16A F158/CD32B [16]: 4.42 | Ratio of Affinities CD16A V158/CD32B [17]: 5.62

Immunoglobulin with variant Fc region P396L F243L (antibody)
Koff WT/Koff mutant [13]: 1.6 | Koff WT/Koff mutant [14]: 1.49 | Koff WT/Koff mutant [15]: 2.22 | Ratio of Affinities CD16A F158/CD32B [16]: 0.72 | Ratio of Affinities CD16A V158/CD32B [17]: 0.67

Immunoglobulin with variant Fc region R255L P396L D270E (antibody)
Koff WT/Koff mutant [13]: 1.65 | Koff WT/Koff mutant [14]: 1.34 | Koff WT/Koff mutant [15]: 0.87 | Ratio of Affinities CD16A F158/CD32B [16]: 1.9 | Ratio of Affinities CD16A V158/CD32B [17]: 1.54

Immunoglobulin with variant Fc region R292P F243L P396L Y300L (antibody)
Koff WT/Koff mutant [13]: 5.62 | Koff WT/Koff mutant [14]: 10.1 | Koff WT/Koff mutant [15]: 1.07 | Ratio of Affinities CD16A F158/CD32B [16]: 5.25 | Ratio of Affinities CD16A V158/CD32B [17]: 9.4

Immunoglobulin with variant Fc region G316D R416G D270E F243L (antibody)
Koff WT/Koff mutant [13]: 1.34 | Koff WT/Koff mutant [14]: 1.5 | Koff WT/Koff mutant [15]: 0.2 | Ratio of Affinities CD16A F158/CD32B [16]: 6.7 | Ratio of Affinities CD16A V158/CD32B [17]: 7.5

Immunoglobulin with variant Fc region P247L N421K D270E (antibody)
Koff WT/Koff mutant [13]: 2.46 | Koff WT/Koff mutant [14]: 1.89 | Koff WT/Koff mutant [15]: 0.58 | Ratio of Affinities CD16A F158/CD32B [16]: 4.24 | Ratio of Affinities CD16A V158/CD32B [17]: 3.26

Immunoglobulin with variant Fc region P247L N421K F243L (antibody)
Koff WT/Koff mutant [13]: 1.71 | Koff WT/Koff mutant [14]: 1.89 | Koff WT/Koff mutant [15]: 0.17 | Ratio of Affinities CD16A F158/CD32B [16]: 10.1 | Ratio of Affinities CD16A V158/CD32B [17]: 11.1

Immunoglobulin with variant Fc region L235I, F243L, R292P, Y300L (antibody)
Ratio of Affinities 32A-131H:32B [5]: 2.5 | Ratio of Affinities 16A-158F:32B [6]: 16.5 | binding relative to wt (wt = 1) [7]: 3.3 | binding relative to wt (wt = 1) [8]: 0.1 | binding relative to wt (wt = 1) [9]: 2.6 | binding relative to wt (wt = 1) [10]: 0.5 | binding relative to wt (wt = 1) [11]: 0.2 | Ratio of Affinities 16A-158V:32B [12]: 13

Immunoglobulin with variant Fc region P247L N421K D270E F243L (antibody)
Koff WT/Koff mutant [13]: 3.45 | Koff WT/Koff mutant [14]: 2.3 | Koff WT/Koff mutant [15]: 0.32 | Ratio of Affinities CD16A F158/CD32B [16]: 10.8 | Ratio of Affinities CD16A V158/CD32B [17]: 7.19

Immunoglobulin with variant Fc region L235V, F243L, R292P, Y300L, P396L (antibody)
Ratio of Affinities 32A-131H:32B [5]: 3.3 | Ratio of Affinities 16A-158F:32B [6]: 12 | binding relative to wt (wt = 1) [7]: 4.8 | binding relative to wt (wt = 1) [8]: 0.4 | binding relative to wt (wt = 1) [9]: 6.1 | binding relative to wt (wt = 1) [10]: 1.3 | binding relative to wt (wt = 1) [11]: 0.4 | Ratio of Affinities 16A-158V:32B [12]: 15

Immunoglobulin with variant Fc region R255L P396L (antibody)
Koff WT/Koff mutant [13]: 1.39 | Koff WT/Koff mutant [14]: 1.09 | Koff WT/Koff mutant [15]: 2.22 | Ratio of Affinities CD16A F158/CD32B [16]: 0.63 | Ratio of Affinities CD16A V158/CD32B [17]: 0.49

Immunoglobulin with variant Fc region Q419H P396L (antibody)
Koff WT/Koff mutant [13]: 1.19 | Koff WT/Koff mutant [14]: 1.19 | Koff WT/Koff mutant [15]: 1.33 | Ratio of Affinities CD16A F158/CD32B [16]: 0.89 | Ratio of Affinities CD16A V158/CD32B [17]: 0.89

Immunoglobulin with variant Fc region G316D R416G D270E (antibody)
Koff WT/Koff mutant [13]: 2.49 | Koff WT/Koff mutant [14]: 2.18 | Koff WT/Koff mutant [15]: 0.78 | Ratio of Affinities CD16A F158/CD32B [16]: 3.19 | Ratio of Affinities CD16A V158/CD32B [17]: 2.79
